This data set is described as follows: yeast display, Sf9 membrane polyspecificity reagent, FACS + sequencing; frameworks hold sequencing errors. The gist of the method: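 Synthetic nanobody libraries on Saccharomyces cerevisiae BJ5465 were galactose-induced for 36–48 hours, stained 1 hour at 4 °C with 10% biotinylated, detergent-solubilized Sf9 membrane reagent and enriched on streptavidin microbeads. FACS then separated cells into low and high (top ~1%) gates by anti-HA (expression) and streptavidin (reagent binding) fluorescence. Genes were colony-PCR amplified, MiSeq 2 × 250 sequenced and CDR-length filtered. A clone's polyreactivity label is that of its gate of origin.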
For the sequence “QVQLVESGGGLVQAGGSLRLSCAASGRIFFTYAMGWYRQAPGKERELVASITGSGGSTYYADSVKGRFTISRDNAKNTVYLQMNSLQPEETAVYYCAAALFPRQLYRKFYYWGQGTQVTVSS”, the “polyreactivity (PSR sort gate)” value is given as “low polyreactivity”. The value for “QVQLVESGGGLVQAGGSLRLSCAASGRIFFVNAMGWYRQAPGKERELVAAISRGGSTNYADSVKGRFTISRDNAKNTVYLQMNSLKPEDTEVYYCNADGSSYWYPVPLDGGDYWGQGTQVTVSS” was “low polyreactivity”; that for “QVQLVESGGGLVQAGGSLRLSCAASGRIFFVYAMGWYRQAPGKERELVAAITASGGSTYYADSVKVRFTISRDNAKNSVYLQMNSLNPEDTAVYDCAAAGYGWGGYREYGWGQGTQVTVSS” was “low polyreactivity”. Next, “QVQLVESGGGLVQAGGSLRLSCAASGRIFFWYAMGWYRQAPGKERELVASINWSGVSTYYADSVKGRFTISRDNAKNTVYLQMNSLKPEDTAVYYCNRVRGLYWQRHGYWGQGTQVTVSS”: “high polyreactivity”. Next, “QVQLVESGGGLVQAGGSLRLSCAASGRIFFYAMGWYRQAPGKERELVASITTSGTSTYYADSVKGRFTISRDNAKNTVYLQMNSLKPEDTAVYYCNATSNSIRWYDFYYWGQGTQVTVSS”: “low polyreactivity”; “QVQLVESGGGLVQAGGSLRLSCAASGRIFFYYAKGWSRQAPGKARELVAAINRGGRTYYADSVKGRFTISRDNAKNTVYLQMNSLKPEDTADYYCAADCHTAKSNFDYWGQGTQVTVSS”: “low polyreactivity”; “QVQLVESGGGLVQAGGSLRLSCAASGRIFFYYAMGLYRQATGKERELVAAITDSVDSTYYADSVKGRFTISRDNAKNTVYFQMKSLKPEDTAVYYCATDVDWAYGYHYEYWGQGPQVTVSS”: “low polyreactivity”. For the sequence “QVQLVESGGGLVQAGGSLRLSCAASGRIFFYYAMGWYRQAPGKERELVAAISQSGGSSYYADSVKGRFTISRDNAKNTVYLQLTSLKPEDTAVYYCAADDRYYTYGYDYWGQGTQVTVSS”, the “polyreactivity (PSR sort gate)” value was “low polyreactivity”.

Turning to “QVQLVESGGGLVQAGGSLRLSCAASGRIFGAYAMGWYRQAPGKERELVAAITSRGGNTYYADSVKGRFTISRDNAKNTVYFQMNSLKPEDTAVYYWAARHDKRRQYYVGQSAFDYWGQGTQVTVSS”, the “polyreactivity (PSR sort gate)” value is given as “low polyreactivity”. The value for “QVQLVESGGGLVQAGGSLRLSCAASGRIFGAYAMGWYRQAPGKERELVASITGRGTSTYYADSVKGRFTISRDNAKNTVYLQMNSLKPEDSAVYYCAADKTVRSSNYDYWGQGTQVTVSS” was “low polyreactivity”; that for “QVQLVESGGGLVQAGGSLRLSCAASGRIFGDNAMGWYRQAPGKEREFVAAISWSGGTTYYADSVKGRFTISRDNAKNTVYLQMNSLKPEDTAVYYCAADYTRGYDYWGQGTQVTVSS” was “low polyreactivity”. For the sequence “QVQLVESGGGLVQAGGSLRLSCAASGRIFGDNAMGWYRQAPGKERELVAAITSGGNTYYADSVKGRFTISRDNAKNTVYLQMNSLKPEDTAVYYCNVADWRRWGYDYWGQGTQVTVSS”, the “polyreactivity (PSR sort gate)” value is on record as “low polyreactivity”.

Regarding “QVQLVESGGGLVQAGGSLRLSCAASGRIFGFYAMGCYRQAPGKERELVAVITYRDGRTYYADSVKGRFTISRDNEKNTVYLQMNSLKPEDTAVYYCARGYQGRLKYESWGQGTQVTVSS”, the “polyreactivity (PSR sort gate)” value is reported as “low polyreactivity”. Next, “QVQLVESGGGLVQAGGSLRLSCAASGRIFGFYAMGWYRPAPGKERELVARITLSGGRTYYADSVKGRFTISRDNAKNTVYLQMNSLKPEDTAVYYCAADSIGRLWGYGYWGQGTQVTVSS”: “high polyreactivity”; “QVQLVESGGGLVQAGGSLRLSCAASGRIFGFYAMGWYRQAPGKERELVARITLSGGRTYYADSVKGRFTISRDNAKNTVYLQMNSLKPEDTAVYYCAAVSYSKRTWSMNYWGQGTQVTVSS”: “high polyreactivity”; “QVQLVESGGGLVQAGGSLRLSCAASGRIFGFYTMGWYRQAPGKERELVAVINRGGRTYYADSVKGRFTISRDNAKNTVYLQMNSLKPEDTAVYYCAADYYTQGAYRGMDYWGQGTQVTVSS”: “high polyreactivity”.

As to “QVQLVESGGGLVQAGGSLRLSCAASGRIFGGNAMGGYRQAPGKERELVAAITTGGSTNYADSVKGRFTISRDNAKNTVYLQMNSLKPEDTAVYYCNKRQSARLYGDTYDYWGQGTQVTVSS”, the “polyreactivity (PSR sort gate)” value is recorded as “low polyreactivity”.

With “QVQLVESGGGLVQAGGSLRLSCAASGRIFGGNAMGWFRQAPGKERELVAASTTRGGSTSADSVKGRFTISRDNAKNTVYLHMNSLKPEATAVYYCAVARSSHGGPRYLVRTYGYWGQATQVTVSS”, the “polyreactivity (PSR sort gate)” value is listed as “low polyreactivity”. The value for “QVQLVESGGGLVQAGGSLRLSCAASGRIFGGNAMGWYRKAPGTEREVVAAISWIGGTTYYADSVKGRFTISRDNAKNTVYLQMISLKPEDTAVYYCAAYRYRPHDHRYYRYDYWGQGTQVTVSS” was “high polyreactivity”; that for “QVQLVESGGGLVQAGGSLRLSCAASGRIFGGNAMGWYRPAPGKERELVGGISRRGGSTYYADSVKGRFTISRDNAKNTVYLQMYSLKPEDTAVYYCNAYYRYSVFAEKYDYWGQGTQVTVSS” was “high polyreactivity”; that for “QVQLVESGGGLVQAGGSLRLSCAASGRIFGGNAMGWYRQAAGKERELVAGITGSGGSTYYADSVKGRFTISRDNAKNTVYLQMISLKPEDTAVYYCAAGYTYYYPSSGFDYWGQGTQVTVSS” was “low polyreactivity”. The value for “QVQLVESGGGLVQAGGSLRLSCAASGRIFGGNAMGWYRQAPGKECELVAAISKGGGSTNYADSVKGRFTISRDNAKNTVYLQMNSLKPEDTAVYYCAAVVSAHADDVDYWGQGTQVTVSS” was “high polyreactivity”; that for “QVQLVESGGGLVQAGGSLRLSCAASGRIFGGYAMGWSRQAPGKERELVAAISNGGSTYYADSVKGRFTISRDNAKNTVYLQMNSLKPEDTAVYYCAARWNWTGYRYDHWGQGTQVTVSS” was “low polyreactivity”; that for “QVQLVESGGGLVQAGGSLRLSCAASGRIFGGYAMGWYRQAPGKEREFVAAITTSGGSTYYADSVKGRFTISRDNAKNTVYFQMNSLKPEDTAVYYCAARGYIPARFVSLVYRYYYWGQGTQVTVSS” was “high polyreactivity”.

Regarding “QVQLVESGGGLVQAGGSLRLSCAASGRIFGGYAMGWYRQAPGKERELVASITGGGTTDYADSVKGRFTISRDNAKNTVYLQMNSLKPEDTAVYYCAKRSHQFGVSRSYNTYYYWGQGTQVTVSS”, the “polyreactivity (PSR sort gate)” value is reported as “low polyreactivity”. “QVQLVESGGGLVQAGGSLRLSCAASGRIFGGYTMGWYRQAHGKERELFAAITGSGGRTYYAYSVKGRFTISRDNAKNTVYLQMNSLKPEDTAVYYCNTVYRYRYYWGEGTQVTVSS”: the “polyreactivity (PSR sort gate)” value is on record as “high polyreactivity”. Next, “QVQLVESGGGLVQAGGSLRLSCAASGRIFGGYTMGWYRQAPGKEREFVAAITSSGGSTYYADSVKGRFTISRDNAKNTVYLQMNSLKPEDTAVYYCAVDDYYYDYDYWGQGTQVTVSS”: “low polyreactivity”. Regarding “QVQLVESGGGLVQAGGSLRLSCAASGRIFGHYTMGWYRQAPGKERELVAAISWGGVRTYYADSVKGRFTISRDNAKNTVYLQMNSLKPEVTAVYYCAARWRRYVYPDGHLFWYDYWGQGTQVTVSS”, the “polyreactivity (PSR sort gate)” value is given as “high polyreactivity”. Regarding “QVQLVESGGGLVQAGGSLRLSCAASGRIFGHYVMGWYRQAPGKERELVAAISYSGGSTYYADSVKGRFTISRDNAKITVYLQMISLKPEDTAVYYCAARETQDSPYGAYYYWGQGTQVTVSS”, the “polyreactivity (PSR sort gate)” value was “high polyreactivity”. With “QVQLVESGGGLVQAGGSLRLSCAASGRIFGINAMGWYRQAPGKERELVASIDGGGSKNYADSVKGRFTISRDNAKNTVYLQMNSLKPEDTAVYYCAKERSEYRSRHQAYRYDYWGQGTQVTVSS”, the “polyreactivity (PSR sort gate)” value is listed as “low polyreactivity”.

The values are drawn from the nanobody polyreactivity screen of Harvey et al. (2022).
